{
  "source": "patent US20250026827A1",
  "target": "SIRPγ on Jurkat cells (human) (UniProt Q9P1W8)",
  "sequence (Q9P1W8 29-387)": "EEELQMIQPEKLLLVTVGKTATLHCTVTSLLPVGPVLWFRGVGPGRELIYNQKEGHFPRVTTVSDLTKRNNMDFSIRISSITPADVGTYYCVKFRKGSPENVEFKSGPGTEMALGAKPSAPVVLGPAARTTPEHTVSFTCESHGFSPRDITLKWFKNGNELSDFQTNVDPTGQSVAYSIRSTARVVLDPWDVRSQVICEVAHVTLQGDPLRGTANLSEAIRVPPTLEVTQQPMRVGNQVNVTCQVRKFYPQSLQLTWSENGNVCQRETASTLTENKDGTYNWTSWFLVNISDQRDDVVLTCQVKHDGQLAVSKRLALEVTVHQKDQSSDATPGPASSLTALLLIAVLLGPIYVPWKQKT",
  "assay": "flow cytometry on Jurkat cells (endogenous SIRPγ), PE-conjugated antibody, fold over isotype (MFI)",
  "data": [
    {"substance": "PE SIRPy LSB2.20 (antibody)", "values": [
      {"measurement": "EC50 (read off the curve)", "result": 20, "unit": "nM"}
    ]}
  ]
}
